# T1: recombinant human IL-23R-IgG chimera (human, UniProt Q5VWK5 24-355, glycosylated)
# T1 sequence (looked up): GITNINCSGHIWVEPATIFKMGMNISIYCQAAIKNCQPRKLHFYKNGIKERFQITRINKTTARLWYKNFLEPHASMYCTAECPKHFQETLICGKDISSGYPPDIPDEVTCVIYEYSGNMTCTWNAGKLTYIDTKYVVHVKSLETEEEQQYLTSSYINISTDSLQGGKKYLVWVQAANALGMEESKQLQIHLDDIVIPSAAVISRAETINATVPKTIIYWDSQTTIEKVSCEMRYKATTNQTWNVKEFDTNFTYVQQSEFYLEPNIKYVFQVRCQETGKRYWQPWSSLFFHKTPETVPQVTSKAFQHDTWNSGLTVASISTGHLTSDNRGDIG
# T2: H-exIL-23R, recombinant extracellular part of the human IL-23 receptor with N-terminal His6 tag (human, UniProt Q5VWK5 24-350)
# T2 sequence (looked up): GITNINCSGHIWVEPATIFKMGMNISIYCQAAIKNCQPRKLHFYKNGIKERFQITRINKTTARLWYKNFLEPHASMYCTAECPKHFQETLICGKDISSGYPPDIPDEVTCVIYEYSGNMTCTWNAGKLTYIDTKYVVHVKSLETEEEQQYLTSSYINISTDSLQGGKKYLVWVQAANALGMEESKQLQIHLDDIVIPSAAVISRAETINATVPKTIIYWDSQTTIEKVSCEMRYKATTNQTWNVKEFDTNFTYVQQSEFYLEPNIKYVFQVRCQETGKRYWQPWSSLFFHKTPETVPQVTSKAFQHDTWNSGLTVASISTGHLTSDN
# B1: His6-REX009-TolA-AVI (designed binder)
# chain: His6-LAEAKVLANRELDKYGVSDYYKNRINPACHVLSVKSNIDWILASLP-{TolA-AviTag(biotin)}
# modifications: not fully specified
# B2: DH-MBP-p19, double-His6-MBP-p19 fusion protein with a C-terminal 40 aa solubility-supporting prolongation (ligand, human)
# chain: RAVPGGSSPAWTQCQQLSQKLCTLAWSAHPLVGHMDLREEGDEETTNDVPHIQCGDGCDPQGLRDNSQFCLQRIHQGLIFYEKLLGSDIFTGEPSLLPDSPVGQLHASLLGLSQLLQPEGHHWETQQIPSLSPSQPWQRLLLRFKILRSLQAFVAVAARVFAHGAATLSPLEKKTCTSRASSTTTTTTEIRLLTKPERKLSWLLPPLSNN
# B3: His6-REX125-TolA-AVI (designed binder)
# chain: His6-LAEAKVLANRELDKYGVSDHYKNWINPARRVRPVKWLIDAILAALP-{TolA-AviTag(biotin)}
# modifications: not fully specified
# B4: His6-REX128-TolA-AVI (designed binder)
# chain: His6-LAEAKVLANRELDKYGVSDRYKNSINRALPVAAVKWALDLILAWLP-{TolA-AviTag(biotin)}
# modifications: not fully specified
# Experiments:
# [1] = target: T1, recombinant human IL-23R-IgG chimera; experiment: SPR
# [2] = target: T1, recombinant human IL-23R-IgG chimera; experiment: ELISA
# [3] = target: T2, H-exIL-23R, recombinant extracellular …; experiment: ELISA
Binder,Kd [1],further results
B1,1.3 nM,–
B2,–,binding result [2]: binds
B3,~1 nM,–
B4,–,binding result [3]: binds

# Reference: PMC4285857 (Proteins, 2013)
